According to US20150344540A1, “NOVEL GLP-1 RECEPTOR AGONISTS WITH CHOLESTEROL EFFLUX ACTIVITY” (NOVO NORDISK A/S, priority 2012, published 2015):
Where no end group is shown, it is not given here. [ ]: non-standard residue; d: D form. Aib = CC(C)(N)C(=O)O

Target: human GLP-1 receptor (human, UniProt P43220)
Assay: cell-based or functional assay

Binder	CRE luciferase EC50, 0% HSA	CRE luciferase EC50, 1% HSA
H[Aib]EGTFTSDVSSYLEGEAVKEFIAWLVG[Aib]KEFL-NH2 (N-terminus assumed; SMILES CC[C@H](C)[C@H](NC(=O)[C@H](Cc1ccccc1)NC(=O)[C@H](CCC(=O)O)NC(=O)[C@H](CCCCN)NC(=O)[C@@H](NC(=O)[C@H](C)NC(=O)[C@H](CCC(=O)O)NC(=O)CNC(=O)[C@H](CCC(=O)O)NC(=O)[C@H](CC(C)C)NC(=O)[C@H](Cc1ccc(O)cc1)NC(=O)[C@H](CO)NC(=O)[C@H](CO)NC(=O)[C@@H](NC(=O)[C@H](CC(=O)O)NC(=O)[C@H](CO)NC(=O)[C@@H](NC(=O)[C@H](Cc1ccccc1)NC(=O)[C@@H](NC(=O)CNC(=O)[C@H](CCC(=O)O)NC(=O)C(C)(C)NC(=O)[C@@H](N)Cc1c[nH]cn1)[C@@H](C)O)[C@@H](C)O)C(C)C)C(C)C)C(=O)N[C@@H](C)C(=O)N[C@@H](Cc1c[nH]c2ccccc12)C(=O)N[C@@H](CC(C)C)C(=O)N[C@H](C(=O)NCC(=O)NC(C)(C)C(=O)N[C@@H](CCCCN)C(=O)N[C@@H](CCC(=O)O)C(=O)N[C@@H](Cc1ccccc1)C(=O)N[C@@H](CC(C)C)C(N)=O)C(C)C) [[Aib8,Glu23,Val25,Aib36,Lys37]-des-Lys34-GLP-1-(7-37)-peptidyl-Glu-Phe-Leu amide]	0.01 nM	0.004 nM
HGEGTFTSDVSSYLEEEAVKEFIAWLVEKVKEF-NH2 [[Gly8,Glu22,Glu23,Val25,Glu34,Lys35,Val36,Lys37]-GLP-1-(7-37)-peptidyl-Glu-Phe amide]	0.104 nM	0.027 nM
H[Aib]EGTFTSDVSSYLEGEAVKEFIAWLVEKVKEFF-NH2 (N-terminus assumed; SMILES CC[C@H](C)[C@H](NC(=O)[C@H](Cc1ccccc1)NC(=O)[C@H](CCC(=O)O)NC(=O)[C@H](CCCCN)NC(=O)[C@@H](NC(=O)[C@H](C)NC(=O)[C@H](CCC(=O)O)NC(=O)CNC(=O)[C@H](CCC(=O)O)NC(=O)[C@H](CC(C)C)NC(=O)[C@H](Cc1ccc(O)cc1)NC(=O)[C@H](CO)NC(=O)[C@H](CO)NC(=O)[C@@H](NC(=O)[C@H](CC(=O)O)NC(=O)[C@H](CO)NC(=O)[C@@H](NC(=O)[C@H](Cc1ccccc1)NC(=O)[C@@H](NC(=O)CNC(=O)[C@H](CCC(=O)O)NC(=O)C(C)(C)NC(=O)[C@@H](N)Cc1c[nH]cn1)[C@@H](C)O)[C@@H](C)O)C(C)C)C(C)C)C(=O)N[C@@H](C)C(=O)N[C@@H](Cc1c[nH]c2ccccc12)C(=O)N[C@@H](CC(C)C)C(=O)N[C@H](C(=O)N[C@@H](CCC(=O)O)C(=O)N[C@@H](CCCCN)C(=O)N[C@H](C(=O)N[C@@H](CCCCN)C(=O)N[C@@H](CCC(=O)O)C(=O)N[C@@H](Cc1ccccc1)C(=O)N[C@@H](Cc1ccccc1)C(N)=O)C(C)C)C(C)C) [[Aib8,Glu23,Val25,Glu34,Lys35,Val36,Lys37]-GLP-1-(7-37)-peptidyl-Glu-Phe-Phe amide]	0.525 nM	0.372 nM
H[Aib]EGTFTSDVSSYLEEEAVKEFIAWLVEKVKEF-NH2 [[Aib8,Glu22,Glu23,Val25,Glu34,Lys35,Val36,Lys37]-GLP-1-(7-37)-peptidyl-Glu-Phe amide]	0.029 nM	0.012 nM
H[Aib]EGTFTSDVSSYLEGEAVKEFIAWLVEKVKEVL-NH2 (N-terminus assumed; SMILES CC[C@H](C)[C@H](NC(=O)[C@H](Cc1ccccc1)NC(=O)[C@H](CCC(=O)O)NC(=O)[C@H](CCCCN)NC(=O)[C@@H](NC(=O)[C@H](C)NC(=O)[C@H](CCC(=O)O)NC(=O)CNC(=O)[C@H](CCC(=O)O)NC(=O)[C@H](CC(C)C)NC(=O)[C@H](Cc1ccc(O)cc1)NC(=O)[C@H](CO)NC(=O)[C@H](CO)NC(=O)[C@@H](NC(=O)[C@H](CC(=O)O)NC(=O)[C@H](CO)NC(=O)[C@@H](NC(=O)[C@H](Cc1ccccc1)NC(=O)[C@@H](NC(=O)CNC(=O)[C@H](CCC(=O)O)NC(=O)C(C)(C)NC(=O)[C@@H](N)Cc1c[nH]cn1)[C@@H](C)O)[C@@H](C)O)C(C)C)C(C)C)C(=O)N[C@@H](C)C(=O)N[C@@H](Cc1c[nH]c2ccccc12)C(=O)N[C@@H](CC(C)C)C(=O)N[C@H](C(=O)N[C@@H](CCC(=O)O)C(=O)N[C@@H](CCCCN)C(=O)N[C@H](C(=O)N[C@@H](CCCCN)C(=O)N[C@@H](CCC(=O)O)C(=O)N[C@H](C(=O)N[C@@H](CC(C)C)C(N)=O)C(C)C)C(C)C)C(C)C) [[Aib8,Glu23,Val25,Glu34,Lys35,Val36,Lys37]-GLP-1-(7-37)-peptidyl-Glu-Val-Leu amide]	0.198 nM	0.065 nM
HGEGTFTSDVSSYLEEEAVKEFIAWLVEKVKEFL-NH2 [[Gly8,Glu22,Glu23,Val25,Glu34,Lys35,Val36,Lys37]-GLP-1-(7-37)-peptidyl-Glu-Phe-Leu amide]	0.974 nM	0.302 nM
HAEGTFTSDVSSYLEGEAVKEFIAWLVEKVKEFLEK [[Glu23,Val25,Glu34,Lys35,Val36,Lys37]-GLP-1-(7-37)-peptidyl-Glu-Phe-Leu-Glu-Lys]	0.098 nM	0.031 nM
HAEGTFTSDVSSYLEGQAAKEFIAWLVEKVKEFLER [[Glu34,Lys35,Val36,Lys37]-GLP-1-(7-37)-peptidyl-Glu-Phe-Leu-Glu-Arg]	0.034 nM	0.011 nM
HAEGTFTSDVSSYLEGQAAKEFIAWLVEGVKEFLEK [[Glu34,Val36,Lys37]-GLP-1-(7-37)-peptidyl-Glu-Phe-Leu-Glu-Lys]	0.085 nM	0.023 nM
HAEGTFTSDVSSYLEGQAAKEFIAWLVEKVKEFLDK [[Glu34,Lys35,Val36,Lys37]-GLP-1-(7-37)-peptidyl-Glu-Phe-Leu-Asp-Lys]	0.045 nM	0.012 nM
HAEGTFTSDVSSYLEGQAAKEFIAWLVEKVKEFLEK [[Glu34,Lys35,Val36,Lys37]-GLP-1-(7-37)-peptidyl-Glu-Phe-Leu-Glu-Lys]	0.03 nM	0.011 nM
HAEGTFTSDVSSYLEGQAAKEFIAWLVEKVKEF-NH2 [[Glu34,Lys35,Val36,Lys37]-GLP-1-(7-37)-peptidyl-Glu-Phe amide]	0.016 nM	0.005 nM
HAEGTFTSDVSSYLEEEAVKEFIAWLVEKVKEF-NH2 [[Glu22,Glu23,Val25,Glu34,Lys35,Val36,Lys37]-GLP-1-(7-37)-peptidyl-Glu-Phe amide]	0.02 nM	0.01 nM
H-HAEGTFTSDVSSYLEGQAAKEFIAWLVEKVGEFLEK [[Glu34,Lys35,Val36]-GLP-1-(7-37)-peptidyl-Glu-Phe-Leu-Glu-Lys]	0.041 nM	0.013 nM
HAEGTFTSDVSSYLEEEAVKEFIAWLVEKVKEFL-NH2 [[Glu22,Glu23,Val25,Glu34,Lys35,Val36,Lys37]-GLP-1-(7-37)-peptidyl-Glu-Phe-Leu amide]	0.299 nM	0.114 nM
H[Aib]EGTFTSDVSSYLEGEAVKEFIAWLVEKVKELL-NH2 (N-terminus assumed; SMILES CC[C@H](C)[C@H](NC(=O)[C@H](Cc1ccccc1)NC(=O)[C@H](CCC(=O)O)NC(=O)[C@H](CCCCN)NC(=O)[C@@H](NC(=O)[C@H](C)NC(=O)[C@H](CCC(=O)O)NC(=O)CNC(=O)[C@H](CCC(=O)O)NC(=O)[C@H](CC(C)C)NC(=O)[C@H](Cc1ccc(O)cc1)NC(=O)[C@H](CO)NC(=O)[C@H](CO)NC(=O)[C@@H](NC(=O)[C@H](CC(=O)O)NC(=O)[C@H](CO)NC(=O)[C@@H](NC(=O)[C@H](Cc1ccccc1)NC(=O)[C@@H](NC(=O)CNC(=O)[C@H](CCC(=O)O)NC(=O)C(C)(C)NC(=O)[C@@H](N)Cc1c[nH]cn1)[C@@H](C)O)[C@@H](C)O)C(C)C)C(C)C)C(=O)N[C@@H](C)C(=O)N[C@@H](Cc1c[nH]c2ccccc12)C(=O)N[C@@H](CC(C)C)C(=O)N[C@H](C(=O)N[C@@H](CCC(=O)O)C(=O)N[C@@H](CCCCN)C(=O)N[C@H](C(=O)N[C@@H](CCCCN)C(=O)N[C@@H](CCC(=O)O)C(=O)N[C@@H](CC(C)C)C(=O)N[C@@H](CC(C)C)C(N)=O)C(C)C)C(C)C) [[Aib8,Glu23,Val25,Glu34,Lys35,Val36,Lys37]-GLP-1-(7-37)-peptidyl-Glu-Leu-Leu amide]	0.489 nM	0.303 nM
H[Aib]EGTFTSDVSSYLEGEAVKEFIAWLVEKVKEKL-NH2 (N-terminus assumed; SMILES CC[C@H](C)[C@H](NC(=O)[C@H](Cc1ccccc1)NC(=O)[C@H](CCC(=O)O)NC(=O)[C@H](CCCCN)NC(=O)[C@@H](NC(=O)[C@H](C)NC(=O)[C@H](CCC(=O)O)NC(=O)CNC(=O)[C@H](CCC(=O)O)NC(=O)[C@H](CC(C)C)NC(=O)[C@H](Cc1ccc(O)cc1)NC(=O)[C@H](CO)NC(=O)[C@H](CO)NC(=O)[C@@H](NC(=O)[C@H](CC(=O)O)NC(=O)[C@H](CO)NC(=O)[C@@H](NC(=O)[C@H](Cc1ccccc1)NC(=O)[C@@H](NC(=O)CNC(=O)[C@H](CCC(=O)O)NC(=O)C(C)(C)NC(=O)[C@@H](N)Cc1c[nH]cn1)[C@@H](C)O)[C@@H](C)O)C(C)C)C(C)C)C(=O)N[C@@H](C)C(=O)N[C@@H](Cc1c[nH]c2ccccc12)C(=O)N[C@@H](CC(C)C)C(=O)N[C@H](C(=O)N[C@@H](CCC(=O)O)C(=O)N[C@@H](CCCCN)C(=O)N[C@H](C(=O)N[C@@H](CCCCN)C(=O)N[C@@H](CCC(=O)O)C(=O)N[C@@H](CCCCN)C(=O)N[C@@H](CC(C)C)C(N)=O)C(C)C)C(C)C) [[Aib8,Glu23,Val25,Glu34,Lys35,Val36,Lys37]-GLP-1-(7-37)-peptidyl-Glu-Lys-Leu amide]	0.059 nM	0.029 nM
HAEGTFTSDVSSYLEGQAAKEFIAWLVEKVKEFY-NH2 [[Glu34,Lys35,Val36,Lys37]-GLP-1-(7-37)-peptidyl-Glu-Phe-Tyr amide]	0.037 nM	0.014 nM
H[Aib]EGTFTSDVSSYLEGEAVKEFIAWLVEKVKEGL-NH2 (N-terminus assumed; SMILES CC[C@H](C)[C@H](NC(=O)[C@H](Cc1ccccc1)NC(=O)[C@H](CCC(=O)O)NC(=O)[C@H](CCCCN)NC(=O)[C@@H](NC(=O)[C@H](C)NC(=O)[C@H](CCC(=O)O)NC(=O)CNC(=O)[C@H](CCC(=O)O)NC(=O)[C@H](CC(C)C)NC(=O)[C@H](Cc1ccc(O)cc1)NC(=O)[C@H](CO)NC(=O)[C@H](CO)NC(=O)[C@@H](NC(=O)[C@H](CC(=O)O)NC(=O)[C@H](CO)NC(=O)[C@@H](NC(=O)[C@H](Cc1ccccc1)NC(=O)[C@@H](NC(=O)CNC(=O)[C@H](CCC(=O)O)NC(=O)C(C)(C)NC(=O)[C@@H](N)Cc1c[nH]cn1)[C@@H](C)O)[C@@H](C)O)C(C)C)C(C)C)C(=O)N[C@@H](C)C(=O)N[C@@H](Cc1c[nH]c2ccccc12)C(=O)N[C@@H](CC(C)C)C(=O)N[C@H](C(=O)N[C@@H](CCC(=O)O)C(=O)N[C@@H](CCCCN)C(=O)N[C@H](C(=O)N[C@@H](CCCCN)C(=O)N[C@@H](CCC(=O)O)C(=O)NCC(=O)N[C@@H](CC(C)C)C(N)=O)C(C)C)C(C)C) [[Aib8,Glu23,Val25,Glu34,Lys35,Val36,Lys37]-GLP-1-(7-37)-peptidyl-Glu-Gly-Leu amide]	0.011 nM	0.003 nM
